Laboratory results: publication PMC5496856

Conditions: glycan lost; control: wild type

B1: MPT32 (also called Rv1860 or Apa): T10V (protein)
parent chain: MHQVDPNLTRRKGRLAALAIAAMASASLVTVAVPATANADPEPAPPVPTTAASPPSTAAAPPAPATPVAPPPPAAANTPNAQPGDPNAAPPPADPNAPPPPVIAPNAPQPVRIDNPVGGFSFALPAGWVESDAAHFDYGSALLSKTTGDPPFPGQPPPVANDTRIVLGRLDQKLYASAEATDSKAAARLGSDMGEFYMPYPGTRINQETVSLDANGVSGSASYYEVKFSDPSKPNGQIWTGVIGSPAANAPDAGPPQRWFVVWLGTANNPVDKGAAKALAESIRPLVAPPPAPAPAPAEPAPAPAPAGEVAPTPTTPTPQRTLPA
In the case of B1, the “other: T cell antigenicity” value is reported as “no change”.

B2: MPT32 (also called Rv1860 or Apa): T18V (protein)
parent chain: MHQVDPNLTRRKGRLAALAIAAMASASLVTVAVPATANADPEPAPPVPTTAASPPSTAAAPPAPATPVAPPPPAAANTPNAQPGDPNAAPPPADPNAPPPPVIAPNAPQPVRIDNPVGGFSFALPAGWVESDAAHFDYGSALLSKTTGDPPFPGQPPPVANDTRIVLGRLDQKLYASAEATDSKAAARLGSDMGEFYMPYPGTRINQETVSLDANGVSGSASYYEVKFSDPSKPNGQIWTGVIGSPAANAPDAGPPQRWFVVWLGTANNPVDKGAAKALAESIRPLVAPPPAPAPAPAEPAPAPAPAGEVAPTPTTPTPQRTLPA
In the case of B2, the “other: T cell antigenicity” value is reported as “increases”.
